Results from article PMC10152144 (2026).

B1: GMF (protein)
chain: SDSLVVCEVDPELKETLRKFRFRKETNNAAIIMKVDKDRQMVVLEDELQNISPEELKLELPERQPRFVVYSYKYVHDDGRVSYPLCFIFSSPVGCKPEQQMMYAGSKNRLVQTAELTKVFEIRTTDDLTETWLKEKLAFFR
B2: VCA motif VCA (protein)
chain: PSDGDHQVPTTAGNKAALLDQIREGAQLKKVEQNSRPVSCSGRDALLDQIRQGIQLKSVADGQESTPPTPAPTSGIVGALMEVMQKRSKAIHSSDEDEDEDDEEDFEDDDEWED

Target: Arp2/3 complex (Bos taurus, UniProt A7MB62)
Experiment: single-filament microfluidics TIRF detachment assay

| Binder | Kd |
| --- | --- |
| B1 | 70 nM |
| B2 | 560 nM |
